B1: Androgen receptor (Homo sapiens), P10275 (parent)
chain: MEVQLGLGRVYPRPPSKTYRGAFQNLFQSVREVIQNPGPRHPEAASAAPPGASLLLLQQQQQQQQQQQQQQQQQQQQQQQETSPRQQQQQQGEDGSPQAHRRGPTGYLVLDEEQQPSQPQSALECHPERGCVPEPGAAVAASKGLPQQLPAPPDEDDSAAPSTLSLLGPTFPGLSSCSADLKDILSEASTMQLLQQQQQEAVSEGSSSGRAREASGAPTSSKDNYLGGTSTISDNAKELCKAVSVSMGLGVEALEHLSPGEQLRGDCMYAPLLGVPPAVRPTPCAPLAECKGSLLDDSAGKSTEDTAEYSPFKGGYTKGLEGESLGCSGSAAAGSSGTLELPSTLSLYKSGALDEAAAYQSRDYYNFPLALAGPPPPPPPPHPHARIKLENPLDYGSAWAAAAAQCRYGDLASLHGAGAAGPGSGSPSAAASSSWHTLFTAEEGQLYGPCGGGGGGGGGGGGGGGGGGGGGGGEAGAVAPYGYTRPPQGLAGQESDFTAPDVWYPGGMVSRVPYPSPTCVKSEMGPWMDSYSGPYGDMRLETARDHVLPIDYYFPPQKTCLICGDEASGCHYGALTCGSCKVFFKRAAEGKQKYLCASRNDCTIDKFRRKNCPSCRLRKCYEAGMTLGARKLKKLGNLKLQEEGEASSTTSPTEETTQKLTVSHIEGYECQPIFLNVLEAIEPGVVCAGHDNNQPDSFAALLSSLNELGERQLVHVVKWAKALPGFRNLHVDDQMAVIQYSWMGLMVFAMGWRSFTNVNSRMLYFAPDLVFNEYRMHKSRMYSQCVRMRHLSQEFGWLQITPQEFLCMKALLLFSIIPVDGLKNQKFFDELRMNYIKELDRIIACKRKNPTSCSRRFYQLTKLLDSVQPIARELHQFTFDLLIKSHMVSVDFPEMMAEIISVQVPKILSGKVKPIYFHTQ

Variants of: B1
Conditions: with daxx_human DAXX

| Variant | effect of a mutation on the interaction |
| --- | --- |
| K388R;K521R | decreasing interaction strength |

From IntAct's records for PubMed 15572661
